Assay results reported in the MegaScale stability set (Tsuboyama et al. 2023).

B1: EEHEE_rd3_1049 (parent)
chain: TTVKLGDIKVTFDNPEKAKKYAQKLAKIYQLTVHVHGDTIHVK

Variants of: B1
Assay: folding stability dG (cDNA display proteolysis); higher = more stable
Settings: PBS, room temperature

Variant	folding stability dG [kcal/mol]
TTVKLGDIKVTFDNPEKAKKYAQKLAKIYQLTVHVHGDTIHVL	2.57
TTVKLGDIKVTFDNPEKAKKYAQKLAKIYQLTVHVHGDTIHVI	2.62
TTVKLGDIKVTFDNPEKAKKYAQKLAKIYQLTVHVHGDTAHVK	0.282
TTVKLGDIKVTFDNPEKAKKYAQKLAKIYQLTVHVHGDTTHVK	0.449
TTVKLGDIKVTFDNPEKAKKYAQKLAKIYQLTVHVHGDTNHVK	0.239
TTVKLGDIKVTFDNPEKAKKYAQKLAKIYQLTVHVHGDTHHVK	0.576
TTVKLGDIKVTFDNPEKAKKYAQKLAKIYQLTVHVHGDTWHVK	1.28
TTVKLGDIKVTFDNPEKAKKYAQKLAKIYQLTVHVHGDTRHVK	0.214
TTVKLGDIKVTFQNPEKAKKYAQKLAKIYQLTVHVHGDTIHVK	2.1
TTVKLGDIKVTFSNPEKAKKYAQKLAKIYQLTVHVHGDTIHVK	2.25
TTVKLGDIKVTFPNPEKAKKYAQKLAKIYQLTVHVHGDTIHVK	1.58
TTVKLGDIKVTFLNPEKAKKYAQKLAKIYQLTVHVHGDTIHVK	2.08
TTVKLGDIKVTFDFPEKAKKYAQKLAKIYQLTVHVHGDTIHVK	1.2
TTVKLGDIKVTFDQPEKAKKYAQKLAKIYQLTVHVHGDTIHVK	1.25
TTVKLGDIKVTFDEPEKAKKYAQKLAKIYQLTVHVHGDTIHVK	1.4
TTVKLGDIKVTFDMPEKAKKYAQKLAKIYQLTVHVHGDTIHVK	1.2
TTVKLGDIKVTFDHPEKAKKYAQKLAKIYQLTVHVHGDTIHVK	1.61
TTVKLGDIKVTFDNPEKAKKYAQHLAKIYQLTVHVHGDTIHVK	2.27
TTVKLGDIKVTFDNPEKAKKYAQVLAKIYQLTVHVHGDTIHVK	1.96
TTVKLGDIKYTFDNPEKAKKYAQKLAKIYQLTVHVHGDTIHVK	1.95
TTVKLGDIKVTFDNPEKAKKYANKLAKIYQLTVHVHGDTIHVK	1.88
TTVKLGDIKVTFDNPEKAKKYAGKLAKIYQLTVHVHGDTIHVK	1.06
TTVKLGDIKVTFDNPEKAKKYAVKLAKIYQLTVHVHGDTIHVK	1.73
TTVKLGDIKVTFDNPEKAKKYAQKLAKLYQLTVHVHGDTIHVK	2.33

Variant	folding stability dG [kcal/mol]
TTVKLGDIKVTFDNPEKAKKYAQKLAKWYQLTVHVHGDTIHVK	2.15
TTVKLGDIKVTFDNPEKAKKYAQKLAKCYQLTVHVHGDTIHVK	2.92
TTVKLGDIKVTFDNPEKAKKYAQKLAKEYQLTVHVHGDTIHVK	1.47
TTVYLGDIKVTFDNPEKAKKYAQKLAKIYQLTVHVHGDTIHVK	2.5
TTVGLGDIKVTFDNPEKAKKYAQKLAKIYQLTVHVHGDTIHVK	0.845
TTVTLGDIKVTFDNPEKAKKYAQKLAKIYQLTVHVHGDTIHVK	1.85
TAVKLGDIKVTFDNPEKAKKYAQKLAKIYQLTVHVHGDTIHVK	1.22
THVKLGDIKVTFDNPEKAKKYAQKLAKIYQLTVHVHGDTIHVK	1.82
TTVKLGDIKVTFDNPEKAKHYAQKLAKIYQLTVHVHGDTIHVK	1.67
TTPKLGDIKVTFDNPEKAKKYAQKLAKIYQLTVHVHGDTIHVK	0.746
TTLKLGDIKVTFDNPEKAKKYAQKLAKIYQLTVHVHGDTIHVK	1.09
V3D	0.577
TTVKLGHIKVTFDNPEKAKKYAQKLAKIYQLTVHVHGDTIHVK	2.79
TTVKLGGIKVTFDNPEKAKKYAQKLAKIYQLTVHVHGDTIHVK	2.39
TTVKLGMIKVTFDNPEKAKKYAQKLAKIYQLTVHVHGDTIHVK	2.63
TTVKLGLIKVTFDNPEKAKKYAQKLAKIYQLTVHVHGDTIHVK	2.69
TTVKLGDIKVTFDNPEKAKKYAQKLAKIYQLTVHVHGDTIHIK	2.02
TTVKLGDIKVTFDNPEKAKKYAQKLAKIYQLTVHVHGDTIHWK	0.918
TTVKLGDIKVTFDNPEKAKKYAQKLAKIYQLTVHVHGDTIHGK	0.341
TTVKLGDIKVTFDNPEKAKKYAQKLAKIYQLTVHVHGHTIHVK	1.95
TTVKLGDIKVTFDNPEKAKKYAQKLAKIYQLTVHVHGTTIHVK	2
TTVKLGDIKVTFDNPEKAKKYAQKLAKIYQLTVHVHGSTIHVK	2.16
TTVKLGDIKVWFDNPEKAKKYAQKLAKIYQLTVHVHGDTIHVK	2.74
TTVKLGDIKVPFDNPEKAKKYAQKLAKIYQLTVHVHGDTIHVK	1.05

Variant	folding stability dG [kcal/mol]
TTVKLGDIKVEFDNPEKAKKYAQKLAKIYQLTVHVHGDTIHVK	1.58
TTVKLGDIKVTFDNPEKAKKYAQKLAKIYQLTVHVHGDSIHVK	1.24
TTVKLGDIKVTFDNPEKAKKYAQKLAKIYQLTVHVHGDHIHVK	1.58
TTVKLGDIKVTFDNPEKAKKYAQKLAKIYQLTVHVHGDYIHVK	1.71
TTVKLGDIKVTFDNPEKAKKYAQKLAKIYQLTVHVHGDDIHVK	0.923
TTVKLGDIKVTFDNPEKAKKYAQKLAKIYQLFVHVHGDTIHVK	1.81
TTVKLGDIKVTFDNPEKAKKYAQKLAKIYQLWVHVHGDTIHVK	1.48
TTVKLGDIKVTFDNPEKAKKYAQKLAKIYQLGVHVHGDTIHVK	1.32
TTVKLGDIKVTFDNPEKAKKYAQKLAKIYQLTVHVHGDTIMVK	1.86
TTVKLGDIKVTFDNPEKAKKYAQKLAKIYQLTVHVHGDTIEVK	2.44
TTVKLGDIKVTFDNPEKAKKYAQKLAKIYQLTVHVHGDTIQVK	1.55
TTVKLGDIKVTFDNPEKAKKYAQKLAKIYSLTVHVHGDTIHVK	2.06
TTVKLGDIKVTFDNPEKAKKYAQKLAKIYHLTVHVHGDTIHVK	2.42
TTVKLGDIKVTFDNPEKAKKYAQKLAKIYQLTIHVHGDTIHVK	2.37
TTVKLGDIKVTFDNPEKAKKYAQKLAKIYQLTEHVHGDTIHVK	0.147
TTVKLGDIKVTFDNPEKAKKYAQKLAKIYQLTGHVHGDTIHVK	0.145
TTVKLGDIKVTFDNPEKAKKYAQKLAKIYQLTLHVHGDTIHVK	2.1
TTVKLGDIKVTFDNPEKAKKYPQKLAKIYQLTVHVHGDTIHVK	-0.681
TTVKLGDIKVTFDNPEKAKKYMQKLAKIYQLTVHVHGDTIHVK	1.07
TTVKLGDIKVTPDNPEKAKKYAQKLAKIYQLTVHVHGDTIHVK	0.089
TTVKLGDIKVTADNPEKAKKYAQKLAKIYQLTVHVHGDTIHVK	0.107
TTVKLGDIKVTWDNPEKAKKYAQKLAKIYQLTVHVHGDTIHVK	0.742
TTVKLGDIKVTFDNPEKAKKRAQKLAKIYQLTVHVHGDTIHVK	0.268
TTVKLGDIKVTFDNPEKAKKYAQKLAKIFQLTVHVHGDTIHVK	2.11

Variant	folding stability dG [kcal/mol]
ITVKLGDIKVTFDNPEKAKKYAQKLAKIYQLTVHVHGDTIHVK	2.27
TTVKHGDIKVTFDNPEKAKKYAQKLAKIYQLTVHVHGDTIHVK	1.59
TTVKAGDIKVTFDNPEKAKKYAQKLAKIYQLTVHVHGDTIHVK	0.939
TTVKLGDIPVTFDNPEKAKKYAQKLAKIYQLTVHVHGDTIHVK	0.591
TTVKLGDIHVTFDNPEKAKKYAQKLAKIYQLTVHVHGDTIHVK	2.06
TTVKLGDIVVTFDNPEKAKKYAQKLAKIYQLTVHVHGDTIHVK	2.38
TTVKLGDIKVTFDNPEKAKKYAQKLAIIYQLTVHVHGDTIHVK	1.79
TTVKLGDIKVTFDNPEKAKKYAQKLACIYQLTVHVHGDTIHVK	2.95
TTVKLGDSKVTFDNPEKAKKYAQKLAKIYQLTVHVHGDTIHVK	1.37
TTVKLGDKKVTFDNPEKAKKYAQKLAKIYQLTVHVHGDTIHVK	1.83
TTVKLGDIKVTFDNPEIAKKYAQKLAKIYQLTVHVHGDTIHVK	2
TTVKLGDIKVTFDNPEGAKKYAQKLAKIYQLTVHVHGDTIHVK	1.25
TTVKLGDIKVTFDNPELAKKYAQKLAKIYQLTVHVHGDTIHVK	2.17
TTVKLGDIKVTFDNPEKAKKYAQKLAKIYQLTVHVHRDTIHVK	1.13
TTVKLGDIKVTFDNPEKAKKYAQKLAKIYQLTVHVHLDTIHVK	1.31
TTVKLGDIKVTFDNPEKAKKYAQKLAKIYQLTVHVHPDTIHVK	0.698
TTVKLGDIKVTFDNPEKAKKYAQKRAKIYQLTVHVHGDTIHVK	0.324
TTVKLGDIKVTFDNPEKAKKYAQKTAKIYQLTVHVHGDTIHVK	0.212
TTVKLGDIKVTFDNPEKAKKYAQKWAKIYQLTVHVHGDTIHVK	1.44
TTVKLGDIKVTFDNPEKAKKYAQKYAKIYQLTVHVHGDTIHVK	0.832
TTVKLGDIKVTFDNPEKAKKYAQKIAKIYQLTVHVHGDTIHVK	1.83
TTVKLGDIKVTFDNPEKAKKYAQKLNKIYQLTVHVHGDTIHVK	0.427
TTVKLGDIKVTFDNPEKAKKYAQKLRKIYQLTVHVHGDTIHVK	1.37
TTVKLGDIKVTFDNPEKAKKYAQKLCKIYQLTVHVHGDTIHVK	2.77

Variant	folding stability dG [kcal/mol]
TTVKLGDIKVTFDNPEKAKKYAQKLTKIYQLTVHVHGDTIHVK	0.662
TTVKLGDIKVTFDNPEKYKKYAQKLAKIYQLTVHVHGDTIHVK	0.624
TTVKLGDIKVTFDNPEKHKKYAQKLAKIYQLTVHVHGDTIHVK	0.152
TTVKLGDIKVTFDNPEKVKKYAQKLAKIYQLTVHVHGDTIHVK	0.492
TTVKLGDIKVTFDNNEKAKKYAQKLAKIYQLTVHVHGDTIHVK	1.43
TTVKLGDIKVTFDNEEKAKKYAQKLAKIYQLTVHVHGDTIHVK	1.72
TTVKLGDIKVTFDNDEKAKKYAQKLAKIYQLTVHVHGDTIHVK	1.16
TTVKLGDIKVTFDNPEKAKKYAQKLAKIYQLTVHVMGDTIHVK	2.46
TTVKLGDIKVTFDNPEKAKKYAQKLAKIYQLTVHVFGDTIHVK	2.17
TTVKLGDIKVTFDNPEKAKKYAQKLAKIYQLTVHVAGDTIHVK	2.12
TTVKLKDIKVTFDNPEKAKKYAQKLAKIYQLTVHVHGDTIHVK	1.41
TTVKLCDIKVTFDNPEKAKKYAQKLAKIYQLTVHVHGDTIHVK	3.09
TTVKLRDIKVTFDNPEKAKKYAQKLAKIYQLTVHVHGDTIHVK	1.76
TTVKLIDIKVTFDNPEKAKKYAQKLAKIYQLTVHVHGDTIHVK	1.49
TTVKLGDIKVTFDNPNKAKKYAQKLAKIYQLTVHVHGDTIHVK	1.7
TTVKLGDIKVTFDNPLKAKKYAQKLAKIYQLTVHVHGDTIHVK	1.92
TTVKLGDIKVTFDNPEKAKKYAQKLAKIYQLTVHCHGDTIHVK	2.12
TTVKLGDIKVTFDNPEKAKKYAQKLAKIYQLTVHAHGDTIHVK	1.34
TTVKLGDIKVTFDNPEKAKKYAQKLAKIYQLTVHHHGDTIHVK	1.57
TTVKLGDIKVTFDNPEKAKKYAQKLAKIYQLTVHKHGDTIHVK	1.24
TTVKLGDIKVTFDNPEKAKKYAQKLAKIYQLTVHGHGDTIHVK	0.496
TTVKLGDIKVTFDNPEKAKKYAQKLAKIYQLTVHRHGDTIHVK	1.27
TTVKLGDIKVTFDNPEKAKKYAQKLAKIYQLTVHQHGDTIHVK	1.78
